Source: the DeepSol protein solubility set

Experiment: soluble on expression in E. coli; label from the status in PepcDB or PDB records

Row | Sequence | soluble on expression in E. coli
1 | MGPEGALPKASEATVCANNSKVSSPGEKVVLWTREADRVILTMCQEQGAQPHTFSVISQQLGNKTPVEVSHRFRELMQLFHTACEASSEDEDDATSTSNADQLSDHGDLLSEEELDE | soluble
2 | RMTVWQLDLQKRLVQVDGDVARLIGLSHVPPELPVAVFENYVDPEDLPLLRAAEAAALRGEPMQVELRLVLESGGRRWLRLMGEPRPDA | not soluble
3 | MSLSDTTKTASTRTSVTDQEALDFHAQGRPGKLEITPTKPMATQRDLSLAYSPGVAVPVKAIAENPATAYDYTTRGNMVAVISNGTAILGLGNLGALASKPVMEGKSVLFKRFADVDSIDLEVDTEDADEFINCVRYLGPSFGGINLEDIKAPECFIIESRLRELMDIPVFHDDQHGTAIIAAAGLINAIELTGRDFKTTKLVCNGAGAAAIACMDLIKAMGFNPENITLCDTKGVIYQGRTEGMNQWKSAHAVKTDRRTLTEAMNGADVVFGLSQKGAFTEEMIRSMAPKPIIFAMANPDPEITPEEVSRIRDDAIMATGRSDYPNQVNNVLGFPYIFRGALDVRARQINDAMKIAAAQALADLAREDVPDDVAAAYQGNRPRFGSQYIIPVPFDPRLISAIPVAVAKAAIETGVAQREIPDLDAYARELSARRDPMASTTQRLYERVRRSPKRVVFAEAEEEQVMRAAISFTAQGLGTAILLGRDDIIKANAERAGIDLDRANIEITNARLSSRVDAYVDYLYARLQRGGFLLRDVQRLIHNDRNHFAACMVAMGDADAVVTGVTRNYSTALEDIRRCINTKPGHRVIGVSLVVSRNRTVFVADTAVHDMPNAEDLADIAEEAAHLARRFGYEPRVAMLAYSTFGQPVGERSDKVREAVKILDKRNVNFEVDGEMSADVALNHQRMQSQYPFARLSGAANVLVMPAIHSASISTKMLQELGGATVIGPLLVGLDKSVQITSMGAKDSDIVNMAAIAAYNAGREGHHHHHH | not soluble
4 | MAHHHHHHMLSSISPKRYSFDKQGNIKEIDFLSCKSVILPEQHLNAKDNFICTTSILPNFYETPPDKASKLKMTQENNIDKANMGTNVYVQRTSSLSNMNVLQYADEVHNNLQDSNVHEINEPLIFADVNQYCGDANTQGIDPGVVAVSNALFAYNSAFQSIPIKSSPNVFKRRSKGEANSEWSNAFVTRVDPYECTDPEEEFKPYEVTKYYDEGKVKTVFNFDQENYNQDM | soluble
5 | MSEGWNIAILGATGAVGEALLETLAERQFPVGEIYALARHESAGEHLRFGGKSVIVQDAADFDWTQAQLAFFVAGAEASAAWIDDATNAGCLVIDSSGLFALEPDVPLVVPEVNPYVLADYRNRNVIAVADSLTSQLLAALKPLIDQGGLSRIAVTSMLSASAQGKKAVDALAGQSAKLLNGIPIDEDDFFGRQLAFNMLPLLPDREGSVRQERRIVDEVRKILQDDGVMISASVVQSPVFYGHAQMVSFEALRPLAAEEAREAFSRGEDIVLSEETDYPTQVGDASGNPQLSIGCVHNDYGMPEQIQFWSVADNVRFGGALMAVKIAEKLVQEYLY | not soluble
6 | MGLELFLDLVSQPSRAVYIFAKKNGIPLELRTVDLVKGQHKSKEFLQINSLGKLPTLKDGDFILTESSAILIYLSCKYQTPDHWYPSDLQARARVHEYLGWHADCIRGTFGIPLWVQVLGPLIGVQVPEEKVERNRTAMDQALQWLEDKFLGDRPFLAGQQVTLADLMALEELMQPVALGYELFEGRPRLAAWRGRVEAFLGAELCQEAHSIILSILEQAAKKTLPTPSPEAYQAMLLRIARIP | soluble
7 | DGTCVNTNSQITANSQCVKSTATNCYIDNSQLVDTSICTRSQYSDANVKKSVTTDCNIDKSQVYLTTCTGSQYNGIYIRSSTTTGTSISGPGCSISTCTITRGVATPAAACKISGCSLSAM | soluble
8 | MAILIELQDICVDFEQRRVLDNIRLTLTKGNITTLIGPNGAGKSTLVKVILGLQSLSSGKIIRQSGIRIGYVPQKLKLNDTLPLTVNRFLKLAGRFSTQELSEALRLVGGEHLQSSDMHKLSGGETQRVLLARALLQRPDLLVLDEPAQGVDVQGQIDLYDLIHTLRNRFGCAVLMVSHDLHLVMAKTDEVICLQHHVCCSGSPESIAKHPSYLAMFGHRSRDTLAFYQHHHEHHHHDLSGLPVKGKASVCSHHSHGHHKHD | not soluble
9 | MRGNLKLFELKSGRGEKLMKNILIISSSPRKKGNSQILCEQFKKGAEAKGHQVKIVRIMEQNIGFCRACDGCMRNGGTCVLKDDMAEILKMFQKADVLVLATPVYFYGISAQMKTFIDRTYPIWQHLGKKEVYYIISAGLGEDIIERSLGDLNGFVEHLEEYKISGKIYAANVMDAGLVKNQSVFQKAYDMGYAI | not soluble
10 | MDEFGSLLGDSPRSSVNNWEKGVSIPKRDKLEKIAILGNMLPDQILYGRADEYLYDLIDSSFNVKFSDNILYEIFESVPPEKRSYDDLMWLAVAKYFIDNGTYGKVVGKFNYISMLGIPNLYTGSYQNEFIEQREDYKQQEVKYYVYADPEKNILHIMPFVPNEKNIELLYEFPELLEQQADHEVFTANFEQIGLTLKGSTIVYYGIDKQKLEAKTQAYKYDEAVDLYRIAQLPETLSMFDDEIQKQISFLKSK | not soluble
11 | MANSLAIIADPKTGKTYKREIPSERMSSLIGRKIGEEVDGVFFDLVGYKMKITGGSSVDGFAMRPDLQTQGKKQILVKYTSGYRGKNGIRKRITARGSIIGSDITQINLKITQYGPTLEHHHHHH | not soluble
12 | MKTLHLTFIAKSSKRSHFWLELVWLNNQKKILFCGAGHCKMSPHIIATVTIDDEHHHHHHRSNENYSPSSQDMDSPKPKGRILYCRKCEGHGEKVILKNHSPQCPYILCNCKSCEKLNYKRLKSFNKRNKEKIELAAALNAKRHAPESGSSVDDEEGFSRRSSFCSKTSTPDMDSETRTSSTTPITRSNSTMPTANGLEGRSGSLGHMTVMSYDIWKAKCASERKRLEEERLTKPELFTRSPSPGPMRKRAHTFVAPPTIHTPDIPVVAAKKMSLDEKVKGKFITLPTIPAMRIFVNEEDEDVKPVTQMQLAQPIALTPSPQMSLASTLAQIPMSTPVCMPSMITPTSFLDIPSTSSPMLPFQISTTTSPMLQRQTPILTPQMSPFKPVGVATPQPPALSNLSAGQELSSFILHSVVLQAQQAQQKTAQQLIPTSMPSELESTLSLLRLQQSSLGDLIKLSGIQLPTLPTTQPMLTPQMPTLPMMQKALPTVLPGSFQPFLQPTLFTNPV | not soluble
13 | MTKSLESVSFKDVTVDFSRDEWQQLDLAQKSLYREVMLENYFNLISVGCQVPKPEVIFSLEQEEPCMLDGEIPSQSRPDGDIGFGPLQQRMSEEVSFQSEININLFTRDDPYSILEELWKDDEHTRKCGENQNKPLSRVVFINKKTLANDSIFEYKDIGEIVHVNTHLVSSRKRPHNCNSCGKNLEPIITLYNRNNATENSDKTIGDGDIFTHLNSHTEVTACECNQCGKPLHHKQALIQQQKIHTRESLYLFSDYVNVFSPKSHAFAHESICAEEKQHECHECEAVFTQKSQLDGSQRVYAGICTEYEKDFSLKSNRQKTPYEGNYYKCSDYGRAFIQKSDLFRCQRIHSGEKPYEYSECEKNLPQNSNLNIHKKIHTGGKHFECTECGKAFTRKSTLSMHQKIHTGEKPYVCTECGKAFIRKSHFITHERIHTGEKPYECSDCGKSFIKKSQLHVHQRIHTGENPFICSECGKVFTHKTNLIIHQKIHTGERPYICTVCGKAFTDRSNLIKHQKIHTGEKPYKCSDCGKSFTWKSRLRIHQKCHTGERHYECSECGKAFIQKSTLSMHQRIHRGEKPYVCTECGKAFFHKSHFITHERIHTGEKPYECSICGKSFTKKSQLHVHQQIHTGEKPYRCAECGKAFTDRSNLFTHQKIHTGEKPYKCSDCGKAFTRKSGLHIHQQSHTGERHYECSECGKAFARKSTLIMHQRIHTGEKPYICNECGKSFIQKSHLNRHRRIHTGEKPYECSDCGKSFIKKSQLHEHHRIHTGEKPYICAECGKAFTIRSNLIKHQKIHTKQKPYKCSDLGKALNWKPQLSMPQKSDNGEVECSMPQLWCGDSEGDQGQLSSI | soluble
14 | GMQTLNDIYLAYLDSLNHQAFDELGTFVDDNVEHNGRPFGLSGYRDMLVKDFADIPDLRFEAEILVSDATRLAARLFFDCTPKSIFMDLPVNGRRVQFCEHVFYDFEQAKIRRVWSVLDKVAIERQLG | soluble
15 | MGSSHHHHHHSSGLVPRGSHMASGTSKDASGGSSSGKEVLEFYHGYHHSEDEWPVAKTMRDLYDKFAEEHKDSGVEFKPTPVNGDLKDIMNNKVASGEFPDVIDLAGNAVSLAAIEQKLVLDLKPYIDSNKLEKNVGLNYKQNQKDGKIYTVHEQLFTMGLWYNKDIFAKAGAKTPDQWNTWDDFTQAMASIRKQDGVYAFGAGEPSIRLFNTVLGTTENGRKLLDKPLTKEGIESKEFADALKMVMKEIQANGSKNAGGDANAYSKDFQEGKSAVFFNGVWASGEMSKNPSLAPGIYPAGVAISSSGGGITISSKMSEAKQKLALEFLKYMTSDDVQKVIFEKVGANPSNENVNVKELSEKSSEATTKILGQAITQVKNAKAVVPTVSDVWGGDVHTAIINALTESAAENVDVDQKVKSTQDVLKSLIG | soluble
16 | MGSSHHHHHHGGTGENLYFQGGSGMSRVPRPHIHQRISVEDIMKGNRRTLAKAITLAESSNPADSTRLGNLLREIHQMATVRTVPRFALSGSPGSGKSSLLDTLGYYLCEKKNMHVGVLAVDPSSTITHGSILGDKTRMEKLGTHLNSYIRPSPSGGHLGGVTSRAWEALEIFEAARFDVVFVETVGVGQSETQCKDLTDMMILLVPPASGDELQGIKKGVVEVADMVVVTKNDGRRKPLVQQTMSAYARAVMYTEEKQGFEKPVIAVSAEEGTNVPELWEAMLKMWNARLESGQIAHLRRAQSTKHFYNYFEMELLAKARRMTNLEMQNMAHRVWEHEMTPREAGDIMVLRTLREHLAADAAVQHDAGKRA | not soluble
17 | MLIKVKTLTGKEIELDIEPNDRVERIKEKVEEKEGIPPPQQRLIFAGKQMNDDKTAADYKVLGGSVLHLVLALRGGF | not soluble
18 | MDYEIENNHADSIRRGSIEVICGSMFSGKTEELLRRLRRAKIARQTVEIFKPTIDIRYDETDVVSHDKNAIASTPVDNSANILLLSSQVDVVGIDEAQFFDEGLVEVAQQLADQGVRVVIAGLDMDFRRQPFGPMPGLCAIADSVTKVHAVCVECGRLASYSFRRVQGDQQVMLGELNEYSPLCRTCYRKCSSPPQTEEIHSTI | not soluble
19 | TKDFNWNTDFIFSNAKNEVTDLKQNANVMELISGNGFAKQGYPVRGLFSIPFVGLDKDGIPVIINEKGEATSTDINFQERQNTGFLKYEGPTDPTITGSLGNMFSYKGFRLNLFITYSFGNVIRLNPVFKAYYSDLTAMTREFKNRWTLPGDEAKTNVPAILSKRMYDSNEDLKYAYNAYNYSTERIAKGDFIRLKEISLAYDFPKAWINPLKLTDLSLKVQATNLFLIYADDKLNGQDPEFFNAGGVASPVPRQFTITLRLGL | not soluble
20 | MGRRRSHERRDLPPNLYIRNNGYYCYRDPRTGKEFGLGRDRRIAITEAIQANIELFSGHKHKPLTARINSDNSVTLHSWLDRYEKILASRGIKQKTLINYMSKIKAIRRGLPDAPLEDITTKEIAAMLNGYIDEGKAASAKLIRSTLSDAFREAIAEGHITTNHVAATRAAKSEVRRSRLTADEYLKIYQAAESSPCWLRLAMELAVVTGQRVGDLCEMKWSDIVDGYLYVEQSKTGVKIAIPTALHIDALGISMKETLDKCKEILGGETIIASTRREPLSSGTVSRYFMRARKASGLSFEGDPPTFHELRSLSARLYEKQISDKFAQHLLGHKSDTMASQFRDDRGREWDKIEIK | soluble
21 | MQFTDGGKEVELRLRLKTGEILSPKDISVDADGTSLAVKEKRNGLLITLLETNHLFEKIMPSETIWYIDEDQLVVNMKKVDGELKWPDIVESWESLTAGMMQLLKGASIYIVGDSTEINQKVSRELAVGLGYSPLDSKELLESFSKQTIDSWILAEGPDSVAEAESSVLESLSSHVRTVVSTLGGKHGAAGRADQWRHLYSGFTVWVSQTEATDEESAKEEARRSKQEREIGYSNADVVVKLQGWDPTHAKSVAQASLSALKQLIISDKGLPGNK | not soluble
